From patent US20110243928A1 (published 2011)
*: point of attachment. Biotin = O=C1N[C@H]2[C@H](CS[C@H]2CCCCC(=O)*)N1

Legend:
[1] = target: T1, E. coli-expressed recombinant human IL-13 (human, UniProt P35225 35-146); assay: BIAcore analysis 4, antibody captured on Protein A, IL-13 in solution
T1 construct: Untagged E. coli-expressed human IL-13; also called hIL-13; human IL13 (CA)
Protocol: (§1) Completed for both human and cynomolgus IL-13 (E. coli-expressed protein). The quoted KD values are the average from 5 different IL-13 concentration curves (done in triplicate).
(§2) The kinetics analysis was performed on a Biacore 3000 machine, using an antibody capture method. Briefly, for the chimeric 6A1 and humanised antibody constructs Protein A capture was used, whilst for the parental murine 6A1 antibody, capture was by a anti-mouse Fc antibody supplied by Biacore. Briefly, the method is as follows, the capture ligand was immobilised to a CM5 Biosensor chip by primary amine coupling in accordance with Biacore standard protocols and using the reagents supplied in Biacores' primary amine coupling kit. The method involves activation CM5 sensor surface by passing a solution of 50 mM N-hydroxy-succinimide (NHS) and 200 mM N-ethyl-N′-dimethylaminopropyl […] (EDC) over the surface. Then, the capture ligand (dissolved in acetate buffer pH5 or pH4.5) was coupled to the activated sensor surface after which any still activated esters were blocked by an injection of 1M ethanolamine hydrochloride, pH8.5.
(§3) The candidate antibody was then passed over the Protein A or anti-mouse Fc antibody surface, depending on whether it was human or mouse in origin and captured. Once a stable binding signal was seen IL13 was passed over the captured antibody surface at various defined concentrations. The subsequent binding curves were analysed with Biacore analysis software BIAeval v4.1 to determine kinetics. The experiments were carried out using Biacore HBS-EP buffer.

[2] = target: T2, E. coli-expressed recombinant cynomolgus IL-13 (cynomolgus, UniProt Q5I6E4 21-132 (Macaca thibetana entry)); assay: as above
T2 construct: also called cyno IL13 (CA); cIL-13
T2 chain: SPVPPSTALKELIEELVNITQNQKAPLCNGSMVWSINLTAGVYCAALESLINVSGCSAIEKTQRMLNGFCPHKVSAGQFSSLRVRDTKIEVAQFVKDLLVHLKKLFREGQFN
Protocol: as §1, §2, §3

[3] = target: T3, 16mer biotinylated human IL-13 peptide number 24 (human, N-terminal biotin; C-terminal amide); assay: BIAcore analysis 3, antibody over immobilised biotinylated peptide 24
T3 construct: format Biotin-SGSG-PEPTIDE-amide; also called Peptide 24
T3 peptide: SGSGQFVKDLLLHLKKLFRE
Protocol: Completed for the 16mer biotinylated human IL-13 peptide number 24 (identified as the linear binding epitope for parental mAb 6A1, see section 6.7). Note that the absolute KD values obtained for binding to peptide ligands are often quite different to those seen for binding to whole protein targets.
The kinetics analysis was performed on a Biacore 3000 machine using direct binding of antibody to immobilised IL-13 peptide. Briefly, IL-13 biotinylated peptide was captured using a Biacore SA (strepavidin) Biosensor chip. The antibodies were then passed over the sensor surface at various concentrations. The subsequent binding curves were analysed with Biacore analysis software BIAeval 4.1 to determine kinetics. The experiment was carried out using Biacore HBS-EP buffer

[4] = target: T4, E. coli-expressed recombinant human IL-4 (human, UniProt P05112 25-153); assay: binding ELISA
T4 sequence (looked up): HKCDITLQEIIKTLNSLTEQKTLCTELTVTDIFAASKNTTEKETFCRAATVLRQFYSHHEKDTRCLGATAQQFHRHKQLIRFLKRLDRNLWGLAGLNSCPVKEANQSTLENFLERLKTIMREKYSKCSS

[5] = target: T5, E. coli-expressed recombinant human GM-CSF (human, UniProt P04141 18-144); assay: binding ELISA
T5 sequence (P04141 18-144 limits assumed): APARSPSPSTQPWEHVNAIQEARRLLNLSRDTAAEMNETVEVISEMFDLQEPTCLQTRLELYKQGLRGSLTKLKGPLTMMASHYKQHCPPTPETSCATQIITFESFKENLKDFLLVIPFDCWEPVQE

[6] = target: T1, E. coli-expressed recombinant human …; assay: BIAcore analysis 1, antibody captured, IL-13 in solution
Protocol: (§4) Completed for both human and cynomolgus IL-13 (E. coli-expressed protein). The quoted KD values are the average from 5 different IL-13 concentration curves (done in triplicate). Note that mass transfer issues were apparent in this analysis and that a modified experimental protocol (to correct for this issue) has been completed in analysis 4 (where no mass transfer issues were present).
as §2, §3

[7] = target: T2, E. coli-expressed recombinant …; assay: as above
Protocol: as §4, §2, §3

[8] = target: T4, E. coli-expressed recombinant human IL-4; assay: human IL-4 binding sandwich ELISA
[9] = target: T5, E. coli-expressed recombinant human …; assay: sandwich ELISA
[10] = target: T1, E. coli-expressed recombinant human …; assay: BIAcore
[11] = target: T6, E. coli-expressed recombinant det-1 tagged human IL-13 (human, UniProt P35225 35-146); assay: BIAcore
T6 construct: also called Det-1 tagged human IL-13 (made in-house); not shown: det-1 tag
T6 sequence (P35225 other isoform, or with tags, fused parts or gaps): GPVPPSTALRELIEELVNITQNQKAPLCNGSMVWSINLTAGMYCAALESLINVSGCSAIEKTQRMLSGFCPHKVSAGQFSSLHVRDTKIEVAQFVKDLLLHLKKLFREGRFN

[12] = target: T2, E. coli-expressed recombinant …; assay: BIAcore
fine mapping peptide 423 = target: T7, fine mapping peptide 423 (SMILES N=C(N)NCCC[C@H](NC(=O)[C@H](Cc1ccccc1)NC(=O)CNC(=O)[C@H](CO)NC(=O)CNC(=O)[C@H](CO)NC(=O)CCCC[C@@H]1SC[C@@H]2NC(=O)N[C@@H]21)C(=O)N[C@@H](CCC(=O)O)C(=O)NCC(N)=O); assay: fine mapping peptide ELISA
T7 peptide: Biotin-SGSGFREG-NH2
Protocol: (§5) A binding epitope for mAb 6A1 was determined using a peptide set based around […] for binding to human IL-13 and […] for binding to cynomolgus IL-13. Peptides were ordered with 1 amino acid sequentially removed from either the N or C-terminus of these parental peptide sequences (i.e. […] or […]), in order to define the precise linear binding epitope for mAb 6A1.
(§6) An ELISA method was used to detect binding of immobilised biotinylated peptide to the parental mAb 6A1.

fine mapping peptide 421 = target: T8, fine mapping peptide 421 (SMILES …); assay: fine mapping peptide ELISA
T8 peptide: Biotin-SGSGKLFREG-NH2
Protocol: as §5, §6

T1 sequence (P35225 other isoform, or with tags, fused parts or gaps): as above

B1: L1+A1 (antibody, human IgG1, kappa, V domains shown)
VH: QVQLVQSGAEVKKPGSSVKVSCKASGFYIKDTYMHWVRQAPGQGLEWMGTIDPANGNTKYVPKFQGRVTITADESTSTAYMELSSLRSEDTAVYYCARSIYDDYHYDDYYAMDYWGQGTLVTVSS
VL: DIVMTQSPLSLPVTPGEPASISCRSSQNIVHINGNTYLEWYLQKPGQSPRLLIYKISDRFSGVPDRFSGSGSGTDFTLKISRVEADDVGIYYCFQGSHVPWTFGQGTKLEIKR
notes: Humanised 6A1, VH construct A1 and VL construct L1, human gamma1 wild type / kappa constant regions; also called A1L1; humanised anti-IL-13 mAb L1+A1
[1]
  Kd: 170 pM
  koff: 0.00014 s⁻¹
  kon: 824000 M⁻¹ s⁻¹
[2]
  Kd: 80 pM
  koff: 5.86e-05 s⁻¹
  kon: 730000 M⁻¹ s⁻¹
[3]
  fold reduction in affinity against chimaeric 6A1: ~3 fold
[4]
  binding result: no binding (tested: 30 µg/ml)
[5]
  binding result: no binding (tested: 30 µg/ml)
[6]
  Kd: 300 pM
  koff: 0.000155 s⁻¹
  kon: 507000 M⁻¹ s⁻¹
[7]
  Kd: 35 pM
  koff: 1.55e-05 s⁻¹
  kon: 446000 M⁻¹ s⁻¹

B2: monoclonal antibody 6A1 (antibody, IgG1, V domains shown)
VH: EIQLQQSVAELVRPGASVRLSCTASGFYIKDTYMHWVIQRPEQGLEWIGTIDPANGNTKYVPKFQGKATITADTSSNTAYLRLSSLTSEDTAIYYCARSIYDDYHYDDYYAMDYWGQGTSVTVSS
VL: DVLMTQTPLSLPVSLGDQASISCRSSQNIVHINGNTYLEWYLQKPGQSPKLLIYKISDRFSGVPDRFSGSGSGTDFTLKISRVEAEDLGVYYCFQGSHVPWTFGGGTKLEIK
notes: also called 6A1 parental mAb; parental mouse mAb 6A1
[8]
  binding result: no binding
[9]
  binding result: no binding
[10]
  Kd: 270 pM
  koff: 0.000184 s⁻¹
  kon: 682000 M⁻¹ s⁻¹
[11]
  Kd: 32 pM
  koff: 7.2e-05 s⁻¹
  kon: 2.25e+06 M⁻¹ s⁻¹
[12]
  Kd: 61.2 pM
  koff: 5.6e-05 s⁻¹
  kon: 914000 M⁻¹ s⁻¹
[6]
  Kd: 35 pM
  koff: 6.78e-05 s⁻¹
  kon: 1.96e+06 M⁻¹ s⁻¹
[7]
  Kd: 61 pM
  koff: 5.6e-05 s⁻¹
  kon: 914000 M⁻¹ s⁻¹
Fine mapping peptide 423
  absorbance at 490 nm: 0.052 A490
Fine mapping peptide 421
  absorbance at 490 nm: 0.059 A490
